Measured values: patent US20220110851A1

Assays:
[1] = target: acetylcholine receptor on AchR-overexpressed TE671 cells; assay: cell-based or functional assay
[2] = target: acetylcholine receptor protein; assay: SPR, AchR on CM5 chip, positive control

Row | Substance | IC50 value for AchR (AchR inhibitory effect in TE671 cells) [1] [µM] | Kd [2] [µM]
1 | Synake (peptide) | 75 | 2300
2 | bungarotoxin | 0.0075 | –
